The text below walks through data of publication PMC12840758.

The data set addresses T1, MtbCspB (cold shock protein CspB) (Mycobacterium tuberculosis H37Rv) (UniProt I6WZM9).
T1 sequence: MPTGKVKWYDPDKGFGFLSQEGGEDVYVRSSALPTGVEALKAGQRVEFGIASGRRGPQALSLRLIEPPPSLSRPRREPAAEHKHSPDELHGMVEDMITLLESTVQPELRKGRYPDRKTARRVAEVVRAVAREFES
In words: SPR. Particulars: […] (or 250 mM) NaCl, 10 mM MgCl2, 0.05% Tween-20, temperature not stated.
A word on the Kd: it is the constant that tells how readily two partners part at equilibrium. The substance GUGGUCAGUCGAGUGGUUUUUU [oligoU RNA] displayed a Kd of 18.8 nM.

In turn, MTS0997 sRNA (Mcr11, ncRv1264Ac) yielded a Kd of 0.112 nM.

MTS1338 sRNA (DrrS, ncRv11733) showed a dissociation constant Kd of 0.296 nM.
